Measurements reported in paper PMC5171221.
Where two headings read alike, the source gives them in different places.

T1: apododecin DtE (triple E variant) (Halobacterium salinarum, UniProt B0R5M0 1-68, E45A;del50-50;del51-51)
T1 sequence: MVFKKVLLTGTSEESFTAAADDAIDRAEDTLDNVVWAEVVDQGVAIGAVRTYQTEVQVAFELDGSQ

B1: flavin-dsLNA 7 bp surface tether (XNA)
?: GGGCGAC
DNA: GTCGCCC
modifications: LNA; strand 1 5' flavin (CofC4); strand 2 5' 1,2-dithiane, on gold
B2: flavin-dsDNA 100 bp surface tether (dsDNA)
DNA 1: GTCACGATGGCCCAGTAGTT
DNA 2: AACTACTGGGCCATCGTGAC
DNA 3: CGCCGCCGCCGACGACGCCATCGACCGCGCGGAGGACACCCTCGACAACGTGGTGTGGGCGTCACGATGGCCCAGTAGTT
DNA 4: GCCCACACCACGTTGTCGAGGGTGTCCTCCGCGCGGTCGATGGCGTCGTCGGCGGCGGCGAACTACTGGGCCATCGTGAC
modifications: strand 1 5' flavin (CofC4); strand 2 5' (dithiane)3, on gold

Key:
[1] = target: T1, apododecin DtE (triple E variant); assay: QCM-D
[2] = target: T1, apododecin DtE (triple E variant); assay: QCM-D; remark: listed apart in the source

| Binder | binding result [1] | binding result [2] |
| --- | --- | --- |
| B1 | binds |  |
| B2 |  | binds |
